Measurements reported in patent US20140045930A1, “ASSAY FOR ARGINYL HYDROXYLASE ACTIVITY” (priority 2011, published 2014).

Key:
Format in all cases: biochemical
YcfD [1] = biological target: T1, YcfD (Escherichia coli, UniProt P27431); assay: Hydroxylation assay by MALDI-TOF MS (peptide substrates, +16 Da mass shift); details: for % hydroxylation (+16 Da): peptide substrate incubated with YcfD, +16Da mass shift on products
T1 construct: hexa-His (N); made in house; host or cells: E. coli BL21 (DE3), pET28a
T1 sequence (P27431 1-373): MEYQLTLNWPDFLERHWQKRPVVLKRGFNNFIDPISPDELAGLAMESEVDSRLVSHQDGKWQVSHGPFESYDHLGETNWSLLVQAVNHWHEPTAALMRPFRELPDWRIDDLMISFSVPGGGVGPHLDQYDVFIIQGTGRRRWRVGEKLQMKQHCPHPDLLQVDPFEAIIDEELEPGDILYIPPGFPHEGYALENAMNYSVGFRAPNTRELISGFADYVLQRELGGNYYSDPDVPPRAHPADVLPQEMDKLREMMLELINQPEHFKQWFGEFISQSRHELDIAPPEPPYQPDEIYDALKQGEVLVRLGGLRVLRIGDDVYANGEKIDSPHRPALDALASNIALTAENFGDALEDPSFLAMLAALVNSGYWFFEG
Procedure: Assay mixtures (final volume 100 μL in 50 mM Tris-HCl, pH 7.5) contained: enzyme (10 μM), substrate (100 μM), 2OG (160 μM), Fe(II) (200 μM) and ascorbate (2 mM). The reaction mixture was incubated at 37° C. for 30 minutes. The reaction mixture was then placed on ice, 10 μl of 1% formic acid was added to quench the reaction, and the mixture was centrifuged to separate any insoluble material that precipitated during quenching. The resultant soluble mixture (1 μl) and α-cyano-4-hydroxycinnamic acid (CHCA) matrix solution (1 μl) (LaserBio Labs) were double spotted onto a 96 well MALDI sample plate, and when dry analysed using MALDI-TOF MS on a Waters Micromass™ MALDI micro MX™ mass spectrometer in negative ion reflectron mode.
(§1) Using a mass spectrometric (MS) based assay, we then screened YcfD with 21 known peptide fragments of substrates for three human 2OG dependent hydroxylases (PHD2, FIH, JMJD6), that encompasses known hydroxylation sites, including the HIF-1α N- and C-terminal oxygen dependent degradation domain (prolyl-hydroxylation), the HIF-1α C-terminal transcriptional activation domain (asparaginyl hydroxylation), ankyrin repeat domain peptides (asparaginyl hydroxylation), splicing regulatory protein fragments (lysyl5-hydroxylation), and collagen proyl-hyroxylase peptides. […] We then screened other available peptides including a set originally prepared for candidate hydroxylases from Pseudomonas spp., that are potential homologues of the human HIF prolyl-hydroxylases. […] MS-fragmentation analyses, unexpectedly, implied that the predicted hydroxylation occurred at the arginine-residue (Arg-12) at the -3position relative to the C-terminus of the substrate peptide (data not shown). This proposal was supported by ‘alanine scanning’ analyses hydroxylation was assessed for peptides in which substitution of alanine at every position in turn of RLLPAVSEATIRRL. […] We then employed NMR to investigate the regiochemistry of arginine-hydroxylation, employing an octameric peptide (AVSEATIR) containing a single arginine residue to simplify the analyses. This octameric peptide is set out in SEQ ID NO: 12. […] This contrasts with nitric oxide synthase which catalyses hydroxylation of L-arginine to give citrulline and nitric oxide via an Nω-hydroxyarginine intermediate.
Based on the identified peptide substrates for YcfD, we searched the E. coli genome for potential substrates and made a set of peptides. Screening for YcfD activity identified a number of further potential substrate sequences as observed by a +16Da mass shift on products. Examples of the peptide substrates are set out in the Table below.

YcfD [2] = biological target: T1, YcfD
YcfD [3] = biological target: T1, YcfD; assay: NMR analyses of YcfD-catalysed hydroxylation; details: for hydroxylation by YcfD observed by 1H NMR: 1H NMR analyses (data not shown)
Excerpt: NMR-analyses used a Bruker AVIII 700 system equipped with an inverse TCI cryoprobe optimised for ^1H observation and running TOPSPIN 2 software. Chemical shifts are reported in ppm relative to D2O (δH 4.72); the deuterium signal was used as an internal lock signal and the HDO signal was reduced by presaturation where necessary.
as §1

Molecule: KTPLAVLQSTLRS [synthetic peptide, protein origin PhoQ]
- % hydroxylation (+16 Da) (YcfD [1]): 95%

Molecule: KWQMMLSKSMRR [synthetic peptide, protein origin CaiF]
- % hydroxylation (+16 Da) (YcfD [1]): 30%

Molecule: LTHSLKTPLAVLQSTLRS [synthetic peptide, protein origin PhoQ]
- % hydroxylation (+16 Da) (YcfD [1]): 90%

Molecule: O=C(O)c1c[nH]c2c(ccc3cccnc32)c1=O [FG0041]
- inhibition of YcfD argininyl hydroxylase activity (YcfD [2]): inhibitory

Molecule: NTHRGMGYSLRGL [synthetic peptide, protein origin CreB]
- % hydroxylation (+16 Da) (YcfD [1]): 30%

Molecule: KLLRLFFPLSLRV [synthetic peptide, protein origin PhoQ]
- % hydroxylation (+16 Da) (YcfD [1]): 60%

Molecule: O=C(O)c1ccnc(C(=O)O)c1 [pyridine-2,4-dicarboxylic acid]
- inhibition of YcfD argininyl hydroxylase activity (YcfD [2]): inhibitory

Molecule: O=C(O)CNC(=O)C(=O)O [N-oxalylglycine]
- inhibition of YcfD argininyl hydroxylase activity (YcfD [2]): inhibitory

Molecule: O=C(O)c1ccc(C(=O)O)nc1 [pyridine-2,5-dicarboxylic acid]
- enhancement of YcfD activity (YcfD [2]): Enhancers of YcfD activity

Molecule: AQYPQEVITTVRG [synthetic peptide, protein origin PhoP]
- % hydroxylation (+16 Da) (YcfD [1]): 60%

Molecule: ATVAKCVEALKERFQASLRD [synthetic peptide, protein origin PheT]
- % hydroxylation (+16 Da) (YcfD [1]): 40%

Molecule: CC(=O)N[C@@H](CCCNC(=N)N)C(=O)O [N-α-acetyl-L-arginine]
- hydroxylation by YcfD observed by 1H NMR (YcfD [3]): No hydroxylation

Molecule: O=C(O)CNC(=O)c1nc(Cl)c2ccccc2c1O [FG2216]
- inhibition of YcfD argininyl hydroxylase activity (YcfD [2]): inhibitory

Molecule: KHVQALDLSMRFR [synthetic peptide, protein origin Nicotinate-nucleotide diphosphorylase]
- % hydroxylation (+16 Da) (YcfD [1]): 30%

Molecule: O=c1c(-c2ccc(O)cc2)coc2cc(O)cc(O)c12 [genistein]
- inhibition of YcfD argininyl hydroxylase activity (YcfD [2]): inhibitory

Molecule: O=C(O)/C=C/C(=O)O [fumarate]
- inhibition of YcfD argininyl hydroxylase activity (YcfD [2]): inhibitory

Molecule: VEALKERFQASLRD [synthetic peptide, protein origin Phenylalanyl-tRNA synthetase]
- % hydroxylation (+16 Da) (YcfD [1]): 40%

Molecule: AVSEATIR [octameric peptide containing a single arginine residue]
- position of hydroxylation (YcfD [3]; 2D-NMR after incubation with YcfD and HPLC purification): at C-3 of the hydroxylated arginine-residue

Molecule: N=C(N)NCCC[C@H](N)C(=O)O [L-arginine]
- hydroxylation by YcfD observed by 1H NMR (YcfD [3]): No hydroxylation

Molecule: VAKCVEALKERFQASLRD [synthetic peptide, protein origin PheT]
- % hydroxylation (+16 Da) (YcfD [1]): 50%

Molecule: O=C(O)CCC(=O)O [succinate]
- inhibition of YcfD argininyl hydroxylase activity (YcfD [2]): inhibitory

Molecule: ELNREQKWQMMLSKSMRR [synthetic peptide, protein origin CaiF]
- % hydroxylation (+16 Da) (YcfD [1]): 40%

Molecule: LTELNREQKWQMMLSKSMRR [synthetic peptide, protein origin CaiF]
- % hydroxylation (+16 Da) (YcfD [1]): 40%

Molecule: KTPLAVLQSTLRSLR [synthetic peptide, protein origin PhoQ]
- % hydroxylation (+16 Da) (YcfD [1]): 40%

Molecule: O=C(O)c1cccc(C(=O)O)n1 [pyridine-2,6-dicarboxylic acid]
- enhancement of YcfD activity (YcfD [2]): Enhancers of YcfD activity

Molecule: LAVLQSTLRSLRS [synthetic peptide, protein origin PhoQ]
- % hydroxylation (+16 Da) (YcfD [1]): 60%

Molecule: LLRLFFPLSLRV [synthetic peptide, protein origin PhoQ]
- % hydroxylation (+16 Da) (YcfD [1]): 50%

Molecule: RLLPAVSEATIRRL [14-residue synthetic peptide originally prepared for candidate hydroxylases from Pseudomonas spp; YcfD substrate]
- hydroxylation by YcfD (+16Da mass shift) (YcfD [1]; MS based assay, Fe(II) and 2OG dependent): gave a +16Da mass shift
